The subject of one series is 26·29 kDa protease. To be noted: stated under Prior Art; cited from earlier work.
A short description of series [1]: Assay of protease activity with fluorescent peptidyl-MCA substrates. The series is classed as biochemical. To be noted: for Hydrolysis of Z-Arg-Arg-MCA (in words): substrate Z-Arg-Arg-MCA. As for the experimental part:
Table 2 lists specific activities of 26·29 kDa protease, cathepsin B from flesh fly and cathepsin L from flesh fly to various substrates, which were measured in terms of their hydrolytic activities against the fluorescence-attached synthetic substrates. The numeral represents the mass of fluorescent synthetic substrate hydrolyzed by a unit weight of protease, or a specific activity of that enzyme. For the numerals of Table, one unit of activity is defined as a weight of enzyme necessary for hydrolyzing 1 μmol of substrate in 10 minutes. "ND" in Table represents no result because the test not being made. Sequence listing numbers for sequences in Table 2 are: SEQ ID NO:100 and SEQ ID NO:101.
Assay of enzymatic activity was performed using 0.2 ml of 5 mM sodium phosphate (pH 6.0) containing 0.05 mM peptidyl-MCA substrate, 100 mM NaCl, 1 mM EDTA, 5 mM 2-mercaptoethanol, and 10 μl of the test fraction. The solution was incubated at 27° C. for 10 minutes, to which was added 0.2 ml of 20% aqueous solution of acetic acid to stop the reaction. Fluorescence at 380 nm and 460 nm was observed. The amount necessary for hydrolyzing 1 μmol substrate in 10 minutes under the above condition was defined as one unit of protease activity.
For purification of 26·29 kDa protease, carbobenzoxy-Arg-Arg-MCA was used as the substrate. Further, for determination of substrate specificity, various peptidyl-MCAs were used.

For series [2] the following is noted: cited from earlier work.
A short description of series [3]: Assay of protease activity with fluorescent peptidyl-MCA substrates. To be noted: for Recovery of protease activity after treatment to restore activity: condition effective for recombinant human cathepsin L precursor, natural protease denatured first. In kind it is biochemical.
The mark [4] stands for this setting: substrate Suc-Ala-Ala-Pro-Phe-MCA.
Where [5] appears, read: substrate Suc-Leu-Leu-Val-Tyr-MCA.
[6] abbreviates: substrate z-Arg-Arg-MCA, 1 unit hydrolyzes 1 μmol substrate in 10 minutes.

Consider eight molecules from US6103514A, “Protease” (The University of Tokyo, priority 1997, dated 2000).

Consider “26·29 kDa protease of flesh fly (Sarcophaga peregrina), isolated and purified from body fluid cells (enzyme)”, for which the Activity (units/mg enzyme) (units/mg enzyme) amounted to 0.03 with Pyr-Gly-Arg-MCA; 4.29 with Z-Arg-Arg-MCA; 0.15 with Boc-Phe-Ser-Arg-MCA; 2.25 with Z-Phe-Arg-MCA; 0.01 with Suc-Ala-Pro-Phe-MCA; 0.01 with Suc-Ala-Ala-Pro-Phe-MCA. In addition, the figures for the Activity (units/mg enzyme) (units/mg enzyme) with Boc-Val-Leu-Lys-MCA and with Suc-Leu-Leu-Val-Tyr-MCA were 0.61 and 0.03, respectively.
For `CC(C)C[C@H](NC(=O)[C@H]1O[C@@H]1C(=O)O)C(=O)NCCCCN=C(N)N` [E64], the “Inhibition of protease activity” value in the series on 26·29 kDa protease is “inhibited”.
In the case of cathepsin B from flesh fly (enzyme), the Activity (units/mg enzyme) (units/mg enzyme) with Pyr-Gly-Arg-MCA was determined as 0.29; in the series with Z-Arg-Arg-MCA, 0.86; with Z-Phe-Arg-MCA, 20.6; in the series with Suc-Ala-Pro-Phe-MCA, 0.83; with Suc-Ala-Ala-Pro-Phe-MCA it was 0.5; in the series with Suc-Leu-Leu-Val-Tyr-MCA, 18.7.
“cathepsin B: cathepsin B from flesh fly, comparison cysteine protease”: the “Activity (units/mg enzyme)” value in [1] (substrate Pyr-Gly-Arg-MCA) worked out at 0.29 units/mg enzyme; in series [1] (setting [4]), 0.5 units/mg enzyme; in series [1] (substrate Suc-Ala-Pro-Phe-MCA) it was 0.83 units/mg enzyme; in series [1] (setting [5]), 18.7 units/mg enzyme; in series [1] (setting [6]), 0.86 units/mg enzyme; in [1] (substrate z-Phe-Arg-MCA), 20.6 units/mg enzyme. Further, in series [1], the “Hydrolysis of Z-Arg-Arg-MCA (in words)” value was “scarcely hydrolyzes”. The “Hydrolysis of Suc-Leu-Leu-Val-Tyr-MCA (in words, literature)” value in series [2] (substrate Suc-Leu-Leu-Val-Tyr-MCA, Kurata et al. 1992) was “hydrolyzes”. Also, in [2] (substrate Z-Arg-Arg-MCA, Takahashi et al. 1993), the “Hydrolysis of Z-Arg-Arg-MCA (in words, literature)” value is recorded as “can not hydrolyze”.
In the case of cathepsin L from flesh fly (enzyme), the Activity (units/mg enzyme) (units/mg enzyme) in the series with Z-Arg-Arg-MCA stood at 0.17; in the series with Z-Phe-Arg-MCA, 180; with Suc-Leu-Leu-Val-Tyr-MCA, 0.04.
Consider “cathepsin L: cathepsin L from flesh fly, comparison cysteine protease”, for which the “Activity (units/mg enzyme)” value in series [1] (setting [5]) was determined as 0.04 units/mg enzyme; in series [1] (setting [6]) it was 0.17 units/mg enzyme; in series [1] (substrate z-Phe-Arg-MCA) it was 180 units/mg enzyme. For the same molecule, in [1], the “Hydrolysis of Z-Arg-Arg-MCA (in words)” value is “practically does not hydrolyze”.

B1: 26.multidot.29 kDa protease: bimolecular cysteine protease of 26 kDa and 29 kDa subunits, purified from body fluid cells of flesh fly (Sarcophaga peregrina) (protein)
chain 1: TNPPRWDPNYIVKGTLYIPYAEIAEPFYAWYDKNTRRSRIDYYGGMVKTYQLANEHPFGTSLKLAPITTKSELNKVTCLQLNGTSEDPVQVQAILPNAKDFKLIGTETFLGFNCDKFRLEETIGDKKNVYTLWVRYKKSPHYPASRMPIPVRYEMRGYNTLLGSHYDHYYLDYDSYDHDDIPNEVFELDDNMECMPFPGPGK
chain 2: NGGNLVRLSQQALIDCSWEYGNNGCDGGEDFRAYKWMMEMGGVPTEEEYGPYLGQDGYCHAKNVSLVAPITGFFNVTPNDPMALKIALLKHGPISVAIDASPKTFSFYSHGVYYEPTCKNGLDELDHAVLAVGYGTINGEDYWLVKNSWSTYWGNDGYILMSARKNNCGVMTMPTYVEM
Regarding B1, the “Activity (units/mg enzyme)” value in [1] (substrate Boc-Phe-Ser-Arg-MCA) is reported as 0.15 units/mg enzyme; in series [1] (substrate Boc-Val-Leu-Lys-MCA) it was 0.61 units/mg enzyme; in [1] (substrate Pyr-Gly-Arg-MCA) it was 0.03 units/mg enzyme; in series [1] (setting [4]), 0.01 units/mg enzyme; in series [1] (substrate Suc-Ala-Pro-Phe-MCA), 0.01 units/mg enzyme; in series [1] (setting [5]), 0.03 units/mg enzyme. For the same molecule, the figures for the “Activity (units/mg enzyme)” value in series [1] (setting [6]) and in [1] (substrate z-Phe-Arg-MCA) were 4.29 units/mg enzyme and 2.25 units/mg enzyme, respectively. The “Hydrolysis of Z-Arg-Arg-MCA (in words)” value in [1] was “well hydrolyzes”. Besides, the “Hydrolysis of Z-Phe-Arg-MCA (in words)” value in series [1] (substrate Z-Phe-Arg-MCA) is “has also a hydrolyzing activity”. The “Recovery of protease activity after treatment to restore activity” value in series [3] is “no positive effects”.

B2: recombinant homologue of 29 kDa subunit: recombinant protein of 29 kDa subunit expressed in E. coli, recovered as inclusion bodies (protein)
chain: B1 chain 2
With B2, the “Recovery of protease activity after treatment to restore activity” value in series [3] was “could not recover its activity”. In addition, the “Protease activity towards Z-Arg-Arg-MCA of recombinant protein expressed in E. coli” value in series [3] (homogenate or inclusion bodies from expressing E. coli cells) is on record as “only as much as the control E. coli cells”.
